Experimental data: patent US20100150950A1, “HUMAN ANTIBODIES THAT BIND CD70 AND USES THEREOF” (Medarex, Inc., priority 2006, published 2010)

Columns and labels:
[1] = target: T1, human CD70 expressed on the cell surface (human, UniProt P32970 1-193); assay: Scatchard analysis, 125I-labelled antibody on CHO cells transfected with full length CD70
T1 construct: also called full length CD70 on transfected CHO cells
T1 sequence: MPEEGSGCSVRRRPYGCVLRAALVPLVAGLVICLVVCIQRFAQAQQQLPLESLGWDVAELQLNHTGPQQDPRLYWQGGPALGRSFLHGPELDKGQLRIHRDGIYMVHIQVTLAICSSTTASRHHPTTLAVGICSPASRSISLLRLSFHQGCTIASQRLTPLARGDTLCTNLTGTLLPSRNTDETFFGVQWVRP
Experimental: CHO cells were transfected with full length CD70 using standard techniques and grown in RPMI media containing 10% fetal bovine serum (FBS). The cells were trypsinized and washed once in Tris based binding buffer (24 mM Tris pH 7.2, 137 mM NaCl, 2.7 mM KCl, 2 mM Glucose, 1 mM CaCl₂, 1 mM MgCl₂, 0.1% BSA) and the cells were adjusted to 2×10⁶ cells/ml in binding buffer. Millipore plates (MAFB NOB) were coated with 1% nonfat dry milk in water and stored a 4° C. overnight. The plates were washed three times with 0.2 ml of binding buffer. Fifty microliters of buffer alone was added to the maximum binding wells (total binding). Twenty-five microliters of buffer alone was added to the control wells (non-specific binding). […] Varying concentrations of unlabeled antibody at 100 fold excess was added in a volume of 25 μl to control wells and 25 μl of CD70 transfected CHO cells (2×10⁶ cells/ml) in binding buffer were added to all wells. The plates were incubated for 2 hours at 200 RPM on a shaker at 4° C. At the completion of the incubation the Millipore plates were washed three times with 0.2 ml of cold wash buffer (24 mM Tris pH 7.2, 500 mM NaCl, 2.7 mM KCl, 2 mM Glucose, 1 mM CaCl₂, 1 mM MgCl₂, 0.1% BSA.). The filters were removed and counted in a gamma counter. Evaluation of equilibrium binding was performed using single site binding parameters with the Prism software (San Diego, Calif.).

[2] = target: T1, human CD70 expressed on the cell surface; assay: flow cytometry titration on 786-O cells, PE anti-human IgG
Experimental: (§1) Binding of the anti-CD70 human monoclonal antibodies was assessed by incubating 5×10⁵ cells with antibody at a starting concentration of 50 μg/ml and serially diluting the antibody at a 1:3 dilution. The cells were washed and binding was detected with a PE-labeled anti-human IgG Ab. Flow cytometric analyses were performed using a FACSCalibur flow cytometry (Becton Dickinson, San Jose, Calif.).

[3] = target: T1, human CD70 expressed on the cell surface; assay: flow cytometry on Raji cells, MFI
Experimental: as §1, with “dilution. An isotype control antibody was used as a negative control.” for “dilution.”

[4] = target: T1, human CD70 expressed on the cell surface; assay: flow cytometry on Granta 519 cells, MFI
Experimental: as §1, with “dilution. An isotype control antibody was used as a negative control.” for “dilution.”

[5] = target: T1, human CD70 expressed on the cell surface; assay: flow cytometry titration on A498 cells, PE anti-human IgG
Experimental: as §1

[6] = target: T2, recombinant human CD70 fused with a dual myc-His tag (human, UniProt P32970 39-193); assay: ELISA on plate-coated recombinant myc-tagged CD70, anti-human IgG-HRP detection
T2 construct: also called recombinant myc-tagged CD70; CD70-myc-his; not shown: dual myc-His tag
T2 sequence: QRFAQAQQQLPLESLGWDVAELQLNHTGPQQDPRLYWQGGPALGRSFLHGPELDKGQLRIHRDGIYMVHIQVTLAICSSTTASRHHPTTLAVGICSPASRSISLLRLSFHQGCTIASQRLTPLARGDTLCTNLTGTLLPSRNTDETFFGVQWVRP
Experimental: Standard ELISA procedures were performed. The anti-CD70 human monoclonal antibodies were added at a concentration of 1 μg/ml and titrated down at 1:2 serial dilutions. Goat-anti-human IgG (Fc or kappa chain-specific) polyclonal antibody conjugated with horseradish peroxidase (HRP) was used as secondary antibody.

[7] = target: T1, human CD70 expressed on the cell surface; assay: cell-based or functional assay
[8] = target: T1, human CD70 expressed on the cell surface; assay: flow cytometry on 786-0 cells, goat F(ab')2 anti-human IgG(Fc)-PE
Experimental: The cells were incubated for 30 minutes on ice, washed twice in staining buffer and stained with Goat F(ab)′2-anti-human-IgG(Fc)-PE conjugate for 30 minutes. The cells were washed and resuspended in staining buffer for analysis by flow cytometry.

[9] = target: human CD16 (FcRγIII) on effector cells (human, UniProt P08637 17-254); assay: cell-based or functional assay
[10] = tested on: CD70-mediated CD27 signaling induced proliferation of human CD3+ T cells; assay: Functional blocking of CD70 costimulated T cell proliferation; type: cell-based; details: anti-CD3 (OKT3), CHO cells with mouse CD32 and human CD70, 3 days
Text: This example describes the analysis and characterization of the functional blocking of CD70 costimulated T cell proliferation by anti-CD70 antibodies 1F4 IgG1, 1F4 IgG4, 2H5, 2H5 F(ab′)2 and 2H5 Fab.
Human CD3^+ T cells were isolated from cryopreserved PBMC using MACS CD3 Microbeads and then cultured at 2×10^6 cells/ml in RPMI-1640 complete media+10% heat inactivated FCS in the presence of Mitomycin C treated CHO cells stably transfected with both mouse CD32 and human CD70. Cells were stimulated with […] anti-CD3 (clone OKT3) for 3 days, 1 μCi/well of ^3H-Thymidine was added for 6 hours and the cells were harvested. Proliferation was measured as CPM incorporated by scintillation counting.

CD70 = target: T3, CD70 (Homo sapiens, UniProt P32970); assay: Epitope binding experiments using BIAcore
T3 sequence (P32970 1-193): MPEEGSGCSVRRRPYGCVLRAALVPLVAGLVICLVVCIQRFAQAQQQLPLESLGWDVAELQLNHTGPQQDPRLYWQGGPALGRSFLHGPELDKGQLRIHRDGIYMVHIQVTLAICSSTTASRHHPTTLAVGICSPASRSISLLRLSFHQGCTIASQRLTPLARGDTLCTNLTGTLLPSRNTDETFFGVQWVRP
Experimental: Such cross-competing antibodies can be identified based on their ability to cross-compete with 2H5, 10B4, 8B5, 18E7, 69A7, 69A7Y or 1F4 in standard CD70 binding assays. For example, standard ELISA assays can be used in which a recombinant human CD70 protein is immobilized on the plate, one of the antibodies is fluorescently labeled and the ability of non-labeled antibodies to compete off the binding of the labeled antibody is evaluated. Additionally or alternatively, BIAcore analysis can be used to assess the ability of the antibodies to cross-compete.

human CD16 (FcRγIII) on effector cells, sequence (P08637 17-254): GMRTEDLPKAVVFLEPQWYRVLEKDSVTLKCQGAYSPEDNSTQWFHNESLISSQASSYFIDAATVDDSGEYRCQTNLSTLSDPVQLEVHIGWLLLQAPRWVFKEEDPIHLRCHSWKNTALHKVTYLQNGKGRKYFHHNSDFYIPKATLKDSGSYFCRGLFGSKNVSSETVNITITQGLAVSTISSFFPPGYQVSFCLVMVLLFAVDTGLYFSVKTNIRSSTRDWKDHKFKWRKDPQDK

B1: anti-CD70 human monoclonal antibody 8B5 (antibody, V domains shown)
VH: QVQLVESGGGVVQPGRSLRLSCATSGFTFSDYGMHWVRQAPGKGLEWVAVIWYDGSNKYYADSVKGRFTISRDNSKKTLSLQMNSLRAEDTAVYYCARDSIMVRGDYWGQGTLVTVSS
VL: DIQMTQSPSSLSASVGDRVTITCRASQGISSWLAWYQQKPEKAPKSLIYAASSLQSGVPSRFSGSGSGTDFTLTISSLQPEDFATYYCQQYNSYPLTFGGGTKVEIK
notes: Human IgG from hybridoma
[1]
  Kd: ~5.1 nM

B2: anti-CD70 human monoclonal antibody 18E7 (antibody, V domains shown)
VH: QVQLVESGGGVVQPGRSLRLSCAASGFTFSDHGMHWVRQAPGKGLEWVAVIWYDGSNKYYADSVKGRFTISRDNSKNTLYLQMNSLRAEDTAVYYCARDSIMVRGDYWGQGTLVTVSS
VL: DIQMTQSPSSLSASVGDRVTITCRASQGISSWLAWYQQKPEKAPKSLIYAASSLQSGVPSRFSGSGSGTDFTLTISSLQPEDFATYYCQQYNSYPLTFGGGTKVEIK
notes: Human IgG from hybridoma
[2]
  EC50 (read off the curve): ~7 nM
[1]
  Kd: ~1.5 nM

B3: anti-CD70 human monoclonal antibody 2H5 (antibody, IgG1, V domains shown)
VH: QVQLVESGGGVVQPGRSLRLSCAASGFTFSSYIMHWVRQAPGKGLEWVAVISYDGRNKYYADSVKGRFTISRDNSKNTLYLQMNSLRAEDTAVYYCARDTDGYDFDYWGQGTLVTVSS
VL: EIVLTQSPATLSLSPGERATLSCRASQSVSSYLAWYQQKPGQAPRLLIYDASNRATGIPARFSGSGSGTDFTLTISSLEPEDFAVYYCQQRTNWPLTFGGGTKVEIK
notes: Human IgG with kappa light chain; also called HuMAb 2H5; 2H5 IgG1
[3]
  EC50: 1.33 nM
[4]
  EC50: 1.33 nM
[2]
  EC50 (read off the curve): ~5 nM
[5]
  EC50 (read off the curve): ~8 nM
[6]
  EC50 (read off the curve): ~0.06 µg/mL
[7]
  EC50 of decrease in ^3H-thymidine incorporation, Hum-Zap internalization assay on 786-O cells: 0.9 nM
[1]
  Kd: ~2.1 nM

B4: nonfucosylated anti-CD70 human monoclonal antibody 2H5 (antibody, V domains shown)
VH: QVQLVESGGGVVQPGRSLRLSCAASGFTFSSYIMHWVRQAPGKGLEWVAVISYDGRNKYYADSVKGRFTISRDNSKNTLYLQMNSLRAEDTAVYYCARDTDGYDFDYWGQGTLVTVSS
VL: EIVLTQSPATLSLSPGERATLSCRASQSVSSYLAWYQQKPGQAPRLLIYDASNRATGIPARFSGSGSGTDFTLTISSLEPEDFAVYYCQQRTNWPLTFGGGTKVEIK
notes: also called 2H5 NF; 2H5nf
[8]
  EC50 (read off the curve): ~0.2 µg/mL
[9]
  amount of anti-CD16 antibody 3G8 needed to reverse the inhibition of peptide specific CD8+ T cell expansion, against 2H5: ~1000 fold
  potency in lysis of activated human B cells against 2H5, ^51Cr-release ADCC assay with anti-CD16 antibody 3G8: ~10 fold

B5: 2H5 Fab: Fab fragment of anti-CD70 antibody 2H5 (antibody, V domains shown)
VH: QVQLVESGGGVVQPGRSLRLSCAASGFTFSSYIMHWVRQAPGKGLEWVAVISYDGRNKYYADSVKGRFTISRDNSKNTLYLQMNSLRAEDTAVYYCARDTDGYDFDYWGQGTLVTVSS
VL: EIVLTQSPATLSLSPGERATLSCRASQSVSSYLAWYQQKPGQAPRLLIYDASNRATGIPARFSGSGSGTDFTLTISSLEPEDFAVYYCQQRTNWPLTFGGGTKVEIK
[10]
  functional blocking of CD70 costimulated T cell proliferation: complete lack of functional blocking activity

B6: 69A7Y: same as 69A7 with C to Y mutation at VH position 100; VH SEQ ID NO:73, VL SEQ ID NO:11 (antibody, listed as Homo sapiens, V domains shown)
VH: QVQLQESGPGLVKPSETLSLTCTVSGGSVSSDYYYWSWIRQPPGKGLEWLGYIYYSGSTNYNPSLKSRVTISVDTSKNQFSLKLRSVTTADTAVYYCARGDGDYGGNYFDYWGQGTLVTVSS
VL: EIVLTQSPATLSLSPGERATLSCRASQSVSSYLAWYQQKPGQAPRLLIFDASNRATGIPARFSGSGSGTDFTLTISSLEPEDFAVYYCQQRSNWPLTFGGGTKVEIK
CD70
  epitope on CD70: distinct epitopes

B7: 2H5 F(ab′)2: F(ab′)2 fragment of anti-CD70 antibody 2H5 (antibody, V domains shown)
VH: QVQLVESGGGVVQPGRSLRLSCAASGFTFSSYIMHWVRQAPGKGLEWVAVISYDGRNKYYADSVKGRFTISRDNSKNTLYLQMNSLRAEDTAVYYCARDTDGYDFDYWGQGTLVTVSS
VL: EIVLTQSPATLSLSPGERATLSCRASQSVSSYLAWYQQKPGQAPRLLIYDASNRATGIPARFSGSGSGTDFTLTISSLEPEDFAVYYCQQRTNWPLTFGGGTKVEIK
[10]
  functional blocking of CD70 costimulated T cell proliferation: reduced functional blocking efficacy

B8: anti-CD70 human monoclonal antibody 10B4 (antibody, V domains shown)
VH: QIQLVESGGGVVQPGRSLRLSCAASGFTFGYYAMHWVRQAPGKGLEWVAVISYDGSIKYYADSVKGRFTISRDNSKNTLYLQMNSLRAEDTAVYYCAREGPYSNYLDYWGQGTLVTVSS
VL: AIQLTQSPSSLSASVGDRVTITCRASQGISSALAWYQQKPGKAPKFLIYDASSLESGVPSRFSGSGSGTDFTLTISSLQPEDFATYYCQQFNSYPFTFGPGTKVDIK
notes: Human IgG from hybridoma
[2]
  EC50 (read off the curve): ~2 nM
[5]
  EC50 (read off the curve): ~4 nM
[6]
  EC50 (read off the curve): ~0.05 µg/mL
[1]
  Kd: ~1.6 nM
